{"source": "paper PMC9519043", "key": {"[1]": {"tested_on": "HCoV OC43 virus particle (Betacoronavirus 1 HCoV OC43 (ATCC VR-1558))", "experiment": "microfluidic affinity capture, RT-qPCR", "settings": "5' amino C12 linker and TEG spacer 9, 3' inverted dT, SPR (BIAcore T200, […], pH not stated"}, "[2]": {"tested_on": "HCoV 229E virus particle (Human coronavirus 229E (ATCC VR-740))", "experiment": "microfluidic affinity capture, RT-qPCR", "settings": "5' amino C12 linker and TEG spacer 9, 3' inverted dT, SPR (BIAcore T200, […], pH not stated"}}, "data": [{"sequence": "CAGCACCGACCTTGTGCTTTGGGAGTGCTGGTCCAAGGGCGTTAATGGACA [51-nt SARS-CoV-2 aptamer, chip form]", "values": [{"measurement": "binding signal", "setting": "[1]", "result": 3.5, "unit": "% recovery"}, {"measurement": "binding signal", "setting": "[2]", "result": 0.7, "unit": "% recovery"}]}]}
